Measured values from patent US20090263894A1 (AbbVie / Abbott, published 2009).

T1: NGAL rAg Q117A displayed on yeast (human, UniProt P80188 21-198)
T1 construct: Yeast display AGA2 fusion as m5
T1 chain: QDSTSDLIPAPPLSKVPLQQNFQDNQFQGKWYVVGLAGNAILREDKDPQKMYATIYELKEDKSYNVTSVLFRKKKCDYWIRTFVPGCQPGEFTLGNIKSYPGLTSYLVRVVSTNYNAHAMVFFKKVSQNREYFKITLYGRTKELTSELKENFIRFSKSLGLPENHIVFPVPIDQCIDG

T2: NGAL rAg H118A displayed on yeast (human, UniProt P80188 21-198)
T2 construct: Yeast display AGA2 fusion as m5
T2 chain: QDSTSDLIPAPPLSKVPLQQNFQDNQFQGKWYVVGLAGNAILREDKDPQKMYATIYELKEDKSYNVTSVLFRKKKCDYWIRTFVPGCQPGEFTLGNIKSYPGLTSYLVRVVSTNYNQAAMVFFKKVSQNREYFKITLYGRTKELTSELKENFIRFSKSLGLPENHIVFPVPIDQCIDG

T3: NGAL rAg S112A displayed on yeast (human, UniProt P80188 21-198)
T3 construct: Yeast display AGA2 fusion as m5
T3 chain: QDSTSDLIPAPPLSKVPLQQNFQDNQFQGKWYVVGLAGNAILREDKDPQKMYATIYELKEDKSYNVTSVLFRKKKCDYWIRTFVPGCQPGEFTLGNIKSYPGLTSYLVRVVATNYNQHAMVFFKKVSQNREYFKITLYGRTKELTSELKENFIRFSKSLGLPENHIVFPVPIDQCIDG

T4: NGAL rAg S158A displayed on yeast (human, UniProt P80188 21-198)
T4 construct: Yeast display AGA2 fusion as m5
T4 chain: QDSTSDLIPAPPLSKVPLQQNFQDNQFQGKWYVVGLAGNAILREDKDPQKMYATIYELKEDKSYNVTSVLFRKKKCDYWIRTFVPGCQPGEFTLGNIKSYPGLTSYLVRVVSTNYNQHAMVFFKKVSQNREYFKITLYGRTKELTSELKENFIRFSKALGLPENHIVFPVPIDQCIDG

T5: NGAL rAg S14A displayed on yeast (human, UniProt P80188 21-198)
T5 construct: Yeast display AGA2 fusion as m5
T5 chain: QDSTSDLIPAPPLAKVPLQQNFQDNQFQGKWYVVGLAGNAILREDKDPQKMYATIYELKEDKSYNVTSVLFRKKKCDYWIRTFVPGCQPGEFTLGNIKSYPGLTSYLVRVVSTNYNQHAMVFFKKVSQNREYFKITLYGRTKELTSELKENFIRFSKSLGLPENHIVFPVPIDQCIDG

T6: NGAL rAg R109A displayed on yeast (human, UniProt P80188 21-198)
T6 construct: Yeast display AGA2 fusion as m5
T6 chain: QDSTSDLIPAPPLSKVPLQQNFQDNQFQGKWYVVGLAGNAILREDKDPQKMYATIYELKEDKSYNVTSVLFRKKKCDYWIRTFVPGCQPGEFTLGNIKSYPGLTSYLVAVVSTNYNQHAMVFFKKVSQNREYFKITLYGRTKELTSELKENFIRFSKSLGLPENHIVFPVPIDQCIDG

T7: NGAL rAg K15A displayed on yeast (human, UniProt P80188 21-198)
T7 construct: Yeast display AGA2 fusion as m5
T7 chain: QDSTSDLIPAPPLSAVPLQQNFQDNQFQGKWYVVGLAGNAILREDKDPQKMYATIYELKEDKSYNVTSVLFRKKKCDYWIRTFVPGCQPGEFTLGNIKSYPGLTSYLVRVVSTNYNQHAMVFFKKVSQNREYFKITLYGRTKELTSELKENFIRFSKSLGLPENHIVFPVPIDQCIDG

T8: NGAL rAg L159A displayed on yeast (human, UniProt P80188 21-198)
T8 construct: Yeast display AGA2 fusion as m5
T8 chain: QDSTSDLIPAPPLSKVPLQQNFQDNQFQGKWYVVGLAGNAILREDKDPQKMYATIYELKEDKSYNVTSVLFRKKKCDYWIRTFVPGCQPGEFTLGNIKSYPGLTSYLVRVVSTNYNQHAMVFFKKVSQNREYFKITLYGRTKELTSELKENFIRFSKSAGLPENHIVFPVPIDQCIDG


Key:
[1] = target: T1, NGAL rAg Q117A displayed on yeast; assay: flow cytometry titration of the mAb on yeast displaying the NGAL antigen, detection with GaM-PE, fractional binding
[2] = target: T2, NGAL rAg H118A displayed on yeast; assay: as above
[3] = target: T3, NGAL rAg S112A displayed on yeast; assay: as above
[4] = target: T3, NGAL rAg S112A displayed on yeast; assay: flow cytometry, mAb titrated on yeast displaying NGAL
Description: (§1) The side chain of each of the NGAL rAg residues identified from the epitope selections was altered by site-directed mutagenesis to alanine to confirm the functional epitope (direct contact residues) of each NGAL mAb subclone.
(§2) The change in Gibbs free binding energy (ΔΔG_Ala-WT) was determined to assess the energetic impact of each alanine substitution for mAb binding. The change in Gibbs free binding energy upon alanine substitution was calculated using the following equation [2],
(§3) For these experiments, observed fluorescence (F) was used to solve for KD using equation [1]. The KD derived from equation [1] one was then used in equation [2] to derive the change in Gibbs free binding energy upon alanine substitution. The KD is read from the abscissa of each of the curves at the inflection point.

[5] = target: T4, NGAL rAg S158A displayed on yeast; assay: flow cytometry titration of the mAb on yeast displaying the NGAL antigen, detection with GaM-PE, fractional binding
[6] = target: T5, NGAL rAg S14A displayed on yeast; assay: as above
[7] = target: T9, wild-type NGAL antigen displayed on yeast (AGA2 fusion) (human, UniProt P80188 21-198); assay: as above
T9 construct: also called WT

[8] = target: T6, NGAL rAg R109A displayed on yeast; assay: flow cytometry, mAb titrated on yeast displaying NGAL; highest mAb concentration tested listed as KD
Description: as §1, §3

[9] = target: T7, NGAL rAg K15A displayed on yeast; assay: as above
Description: as §1, §3

[10] = target: T6, NGAL rAg R109A displayed on yeast; assay: flow cytometry, mAb titrated on yeast displaying NGAL; from the highest mAb concentration tested
Description: as §1, §2, §3

[11] = target: T7, NGAL rAg K15A displayed on yeast; assay: as above
Description: as §1, §2, §3

[12] = target: T8, NGAL rAg L159A displayed on yeast; assay: flow cytometry, mAb titrated on yeast displaying NGAL
Description: as §1, §2, §3

Binder | EC50 (read off the curve) [1] [pM] | EC50 (read off the curve) [2] [pM] | EC50 (read off the curve) [3] [pM] | Kd [4] [nM] | ΔKD (KD against KD of WT) [4] [fold] | ΔΔG Ala-WT [4] [kcal/mol] | EC50 (read off the curve) [5] [pM] | EC50 (read off the curve) [6] [pM] | EC50 (read off the curve) [7] [pM] | Kd [8] [µM] | Kd [9] [µM] | ΔKD (KD against KD of WT) [10] [fold] | ΔΔG Ala-WT [10] [kcal/mol] | ΔKD (KD against KD of WT) [11] [fold] | ΔΔG Ala-WT [11] [kcal/mol] | Kd [12] [nM] | ΔKD (KD against KD of WT) [12] [fold] | ΔΔG Ala-WT [12] [kcal/mol]
anti-NGAL monoclonal antibody 1-2322-455 (antibody, V domains shown) VH: EVQLVESGGGLVQPGGSLKLSCAASGFTFNNYYMSWVRQTPERRLEWVAYISSSGGSTYYSDSVRGRFTISRDTARNTLYLQMTSLKSEDTAMYYCARHFGDYSYFDYWGQGTTLTVSS VL: DIQMTQSPASLSASVGETVTITCRASENFYSYLAWYQQKQGKSPQLLVYNAKTLAEGVPSRFSGSGSGTQFSLKINSLQPEDFGTYYCQHHYDIPLTFGAGTKLELKR | ~30 | ~200 | ~100 | 0.0793 | 9.79 | 1.35 |  |  |  |  |  |  |  |  |  |  |  | 
anti-NGAL monoclonal antibody 1-903-430 (antibody, V domains shown) VH: KIQLVQSGPELKKPGETVKISCKASGYTFTNYGMNWVKQAPGKGLKWMGWININTGEPTYAEEFKGRFAFSLETSATTAFLQINNLKNEDTATYLCARDSYSGGFDYWGQGTIVTVSS VL: DIVMTQSPSSLSVSAGEKVTLSCKSSQSLLISGDQKNYLAWYQQKPGQPPKLLIYGASTRDSGVPDRFTGSGSGADFTLTISSVQAEDLAVYYCQNDHSFPPTFGAGTKLELKR |  |  |  |  |  |  | ~200 | ~300 | ~200 | > 5 | > 5 | > 24500 | > 5.97 | > 24500 | > 5.97 | 0.137 | 0.67 | -0.23
